# “And” between values parts separate entries of the source, which are not always exact repeats. Identical values can stand only once. Square brackets hold non-standard residues; d marks the D form. Peptide text beside a SMILES is read from it. * marks the point of attachment. ONp = O=[N+]([O-])c1ccc(O*)cc1; X2 = c1ccc(N=Nc2ccc(O*)cc2)cc1; X3 = O=[N+]([O-])c1cccc(O*)c1; X1 = Cc1cc(=O)oc2cc(O*)ccc12; Nva = CCC[C@H](N)C(=O)O
# Tests used:
# NS3/4A(1-631)/4A(1-54) = target: T1, NS3/4A(1-631)/4A(1-54) (Hepatitis C virus genotype 1a, UniProt P27958); experiment: Cleavage efficiency of nitrophenyl and other ester based chromogenic substrates, spectrophotometric; type: biochemical, HCV 1a(H); conditions: 25 mM MOPS pH 6.5, 10% glycerol, 0.15 M NaCl, 0.2% lauryl maltoside
# T1 construct: a noncovalent complex between NS4A (54 residues) and NS3 (631 residues); histidine tag (N, cleaved yes); made in house; host or cells: baculovirus system / insect cells
# Protocol: The chromogenic substrates defined by SEQ ID NOs: 5-13 were synthetically produced as described above and tested for cleavage efficiency in 25 mM MOPS buffer, pH 6.5, containing 10% (v/v) glycerol, 0.15 M NaCl, 0.2% lauryl maltoside. The substrates were cleaved by NS3/4A(1-631)/4A(1-54) (see Example 1). The rate of product formation was monitored by a spectrophotometer, at 400 nm for 4Np, 370 nm for PAP, and 340 nm for 3Np and HMC.
# [1] = target: (Ac-)[…]-(2-Cl-4-nitroanilide) (HCV)
# [2] = target: Ac-DTEDVVA(Nva)-O-3Np (HCV)
# [3] = target: Ac-DTEDVVA(Nva)-O-4Np (HCV)
# [4] = target: Ac-DTEDVVA(Nva)-O-HMC (HCV)
# [5] = target: Ac-DTEDVVA(Nva)-O-PAP (HCV)
# [6] = target: Ac-DTEDVVP(Nva)-O-HMC (HCV)
# [7] = target: Ac-DTEDVVP(Nva)-O-PAP (HCV)
# [8] = target: biotinylated amide substrates
# [9] = target: biotinylated ester substrate
compound,measurement,setting,value
CCC[C@H](NC(=O)[C@H](C)NC(=O)[C@@H](NC(=O)[C@@H](NC(=O)[C@H](CC(=O)O)NC(=O)[C@H](CCC(=O)O)NC(=O)[C@@H](NC(=O)[C@H](CC(=O)O)NC(C)=O)[C@@H](C)O)C(C)C)C(C)C)C(=O)Oc1ccc2c(C)cc(=O)oc2c1 [Ac-DTEDVVA(Nva)-O-HMC] (Ac-DTEDVVA[Nva]-X1),Km,NS3/4A(1-631)/4A(1-54),20 µM
"HCV NS3(1-631)/4A(1-54) protease, non-covalent complex of full-length HCV 1a(H) NS3 with amino acids (enzyme)",kcat/Km,[1],10 M⁻¹ s⁻¹
same,kcat/Km,…-(4-nitroanilide) (HCV),15 M⁻¹ s⁻¹ and 45 M⁻¹ s⁻¹
same,kcat/Km,[2],7300 M⁻¹ s⁻¹
same,kcat/Km,[3],38000 M⁻¹ s⁻¹
same,kcat/Km,[4],8400 M⁻¹ s⁻¹
same,kcat/Km,[5],4000 M⁻¹ s⁻¹
same,kcat/Km,[6],8400 M⁻¹ s⁻¹
same,kcat/Km,[7],13000 M⁻¹ s⁻¹
same,kcat/Km,Ac-[…](Nva)-O-4Np (HCV),25000 M⁻¹ s⁻¹
same,kcat/Km,[…](Nva)-O-3Np (HCV),11100 M⁻¹ s⁻¹
same,catalytic efficiency,[8],< 30000 M⁻¹ s⁻¹
same,catalytic efficiency,[9],< 460000 M⁻¹ s⁻¹
CCC[C@H](NC(=O)[C@H](C)NC(=O)[C@@H](NC(=O)[C@@H](NC(=O)[C@H](CC(=O)O)NC(=O)[C@H](CCC(=O)O)NC(=O)[C@@H](NC(=O)[C@H](CC(=O)O)NC(C)=O)[C@@H](C)O)C(C)C)C(C)C)C(=O)Oc1ccc([N+](=O)[O-])cc1 [Ac-DTEDVVA(Nva)-O-4Np] (Ac-DTEDVVA[Nva]-ONp),Km,NS3/4A(1-631)/4A(1-54),16 µM
CCC[C@H](NC(=O)[C@H](C)NC(=O)[C@@H](NC(=O)[C@@H](NC(=O)[C@H](CC(=O)O)NC(=O)[C@H](CCC(=O)O)NC(=O)[C@@H](NC(=O)[C@H](CC(=O)O)NC(C)=O)[C@@H](C)O)C(C)C)C(C)C)C(=O)Oc1ccc(N=Nc2ccccc2)cc1 [Ac-DTEDVVA(Nva)-O-PAP] (Ac-DTEDVVA[Nva]-X2),Km,NS3/4A(1-631)/4A(1-54),17 µM
CCC[C@H](NC(=O)[C@@H]1CCCN1C(=O)[C@@H](NC(=O)[C@@H](NC(=O)[C@H](CC(=O)O)NC(=O)[C@H](CCC(=O)O)NC(=O)[C@@H](NC(=O)[C@H](CC(=O)O)NC(C)=O)[C@@H](C)O)C(C)C)C(C)C)C(=O)Oc1ccc2c(C)cc(=O)oc2c1 [Ac-DTEDVVP(Nva)-O-HMC] (Ac-DTEDVVP[Nva]-X1),Km,NS3/4A(1-631)/4A(1-54),40 µM
CCC[C@H](NC(=O)[C@H](C)NC(=O)[C@@H](NC(=O)[C@@H](NC(=O)[C@H](CC(=O)O)NC(=O)[C@H](CCC(=O)O)NC(=O)[C@@H](NC(=O)[C@H](CC(=O)O)NC(C)=O)[C@@H](C)O)C(C)C)C(C)C)C(=O)Oc1cccc([N+](=O)[O-])c1 [Ac-DTEDVVA(Nva)-O-3Np] (Ac-DTEDVVA[Nva]-X3),Km,NS3/4A(1-631)/4A(1-54),48 µM
CCC[C@H](NC(=O)[C@@H]1CCCN1C(=O)[C@@H](NC(=O)[C@@H](NC(=O)[C@H](CC(=O)O)NC(=O)[C@H](CCC(=O)O)NC(=O)[C@@H](NC(=O)[C@H](CC(=O)O)NC(C)=O)[C@@H](C)O)C(C)C)C(C)C)C(=O)Oc1ccc(N=Nc2ccccc2)cc1 [Ac-DTEDVVP(Nva)-O-PAP] (Ac-DTEDVVP[Nva]-X2),Km,NS3/4A(1-631)/4A(1-54),18 µM

# From US6251583A, “Peptide substrates for HCV NS3 protease assays” (Schering Corporation, priority 1999, dated 2001)
